Results reported in article PMC6854500.

What was measured:
[1] = target: dissociated PEDV CV777 S1 subunit (S1 ring) (porcine epidemic diarrhea virus, strain CV777) (UniProt Q91AV1); test: cryo-EM structure; roughly 10% of the particles of the PEDV CV777 S data set, 2D classes and a 9.4-Å reconstruction without imposed symmetry (C1)
[2] = target: PEDV CV777 S soluble ectodomain (residues 1 to 1319) with C-terminal T4 fibritin trimerization motif (porcine epidemic diarrhea virus, strain CV777 | bacteriophage T4) (UniProt Q91AV1); test: SEC; Superose6 10/300 column, 2 mM Tris (pH 8.0), 200 mM NaCl, 0.02% NaN3; single symmetrical peak
[3] = target: PEDV CV777 S soluble ectodomain (residues 1 to 1319) with C-terminal T4 fibritin trimerization motif (porcine epidemic diarrhea virus, strain CV777 | bacteriophage T4) (UniProt Q91AV1); test: cryo-EM structure; PEDV S CV777 at 0.4 mg/ml in 2 mM Tris (pH 8.0), 200 mM NaCl, 0.02% NaN3, 0.01% Amphipol A8-35; Titan Krios 300 kV; 3.3 Å without symmetry, 3.1 Å with C3; a 10-Å reconstruction with 2 mM 3'-sialyllactose was indistinguishable

Substance	stoichiometry N [1]	stoichiometry N [2]	stoichiometry N [3]
dissociated PEDV CV777 S1 subunit (S1 ring) (from UniProt Q91AV1 26-1383) (domain or fragment)	3	–	–
PEDV CV777 S soluble ectodomain (residues 1 to 1319) with C-terminal T4 fibritin trimerization motif (from UniProt Q91AV1 26-1319) (domain or fragment)	–	3	3
